B1: A3: third parent P450 of the seven-crossover library (protein, listed as Bacillus subtilis)
chain: KQASAIPQPKTYGPLKNLPHLEKEQLSQSLWRIADELGPIFRFDFPGVSSVFVSGHNLVAEVCDEKRFDKNLGKGLQKVREFGGDGLATSWTHEPNWQKAHRILLPSFSQKAMKGYHSMMLDIATQLIQKWSRLNPNEEIDVADDMTRLTLDTIGLCGFNYRFNSFYRDSQHPFITSMLRALKEAMNQSKRLGLQDKMMVKTKLQFQKDIEVMNSLVDRMIAERKANPDENIKDLLSLMLYAKDPVTGETLDDENIRYQIITFLIAGHETTSGLLSFAIYCLLTHPEKLKKAQEEADRVLTDDTPEYKQIQQLKYIRMVLNETLRLYPTAPAFSLYAKEDTVLGGEYPISKGQPVTVLIPKLHRDQNAWGPDAEDFRPERFEDPSSIPHHAYKPFGNGQRACIGMQFALQEATMVLGLVLKHFELINHTGYELKIKEALTIKPDDFKITVKPRKTAAINVQRKEQA
B2: Chimera F37202: chimera of the CYP102A1/A2/A3 seven-crossover library (protein)
chain: KQASAIPQPKTYGPLKNLPHLEKEQLSQSLWRIADELGPIFRFDFPGVSSVFVSGHNLVAEVCDEERFDKSIEGALEKVRAFSGDGLATSWTHEPNWRKAHNILMPTFSQRAMKDYHEKMVDIATQLIQKWSRLNPNEEIDVADDMTRLTLDTIGLCGFNYRFNSFYRDQPHPFITSMVRALDEAMNKLQRANPDDPAYDENKRQFQEDIKVMNDLVDRMIAERKANPDENIKDLLSLMLYAKDPVTGETLDDENIRYQIITFLIAGHETTSGLLSFAIYCLLTHPEKLKKAQEEADRVLTDDTPEYKQIQQLKYIRMVLNETLRLYPTAPAFSLYAKEDTVLGGEYPISKGQPVTVLIPKLHRDQNAWGPDAEDFRPERFEDPSSIPHHAYKPFGNGQRACIGMQFALQEATMVLGLVLKHFELINHTGYELKIKEALTIKPDDFKITVKPRKTAAINVQRKEQA
modifications: Chimeric Cytochrome P450 heme group polypeptide sequence from CYP102A1 (Bacillus megaterium); CYP102A2 (Bacillus subtilis) and CYP102A3 (Bacillus subtilis)
notes: chimera of the CYP102A1/A2/A3 seven-crossover library

Experiment: Library plate screen on five test substrates (4-AAP, 12-pNCA)
Type: biochemical
Conditions: seven-crossover library, cell lysate, 20 mM H2O2
Procedure: These library plates were replicated and grown in 96 deep-well plates in 900 μL of LB media with 100 μg/ml ampicillin overnight at 30° C. and 250 rpm. 150 μL of this was then transferred to 850 μL of induction media (TB-media with final concentrations of 100 μg/ml ampicillin, 25 μg/ml thiamine, 0.5 mM δ-aminolevulinic acid and 0.6 mM IPTG). These were grown for 20-24 hours at 25° C. and 190 rpm, harvested by centrifugation at 5000×g for 8 minutes and frozen at -20° C. for at least 24 hours. Cells were resuspended using a pipetting robot (Multimek 96, Beckman) and lysed in 400 μL of Epps or Tris buffer (100 mM, pH 8.2) containing 0.8 mg/ml lysozyme and 2 units/mL DNaseI for 1 hour at 37° C. Plates were then spun for 8 minutes at 5000×g and 4° C. to pellet cell debris. 80 μL of lysate was transferred into 4 separate 96 well plates for each library plate. […] On one plate, high -throughput carbon monoxide spectroscopy was done in order to assess relative amounts of P450 (Otey, C. R. High-throughput carbon monoxide binding assay for cytochromes P450. In Directed Enzyme Evolution: Screening and Selection Methods, F. H. Arnold and […]. 137-139 (2003)) with 0.1 M sodium hydrosulfite being used in place of 0.4 M. The other three plates were used to assay activity on different substrates. Examples of assays that have been or could be used include the 4-AAP (Otey, C. R., and Joern, J. M. High-throughput screen for aromatic hydroxylation. In Directed Enzyme Evolution: Screening and Selection Methods, F. H. Arnold and […]. 141-148 (2003)), 12-pNCA (Schwaneberg et al., Anal. Biochem., 269:359-366 (1999), NBP assay ([…], et al., J Biomol Screen, 9:141-146 (2004)), 7-ethoxyresorufin (Sieber et al., Nat Biotechnol., 19:456-460 (2001)), vivid substrate assays (Marks et al., Assay Drug Dev Technol 1, 73-81 (2002); Marks et al., AAPS PharmSci 5, E18 (2003)), and purpald assays (Peters et al., J Am Chem Soc 125:13442-13450 (2003)). Since the heme domains were being used, the hydrogen peroxide was used to drive the reactions via the peroxide shunt (Cirino, P. C., and Arnold, F. H., Advanced Synthesis & Catalysis 344, 932-937 (2002)). The 4-AAP assay detects phenol-like compounds and consists of the addition of 40 μL of a 3.5× substrate solution (containing substrate concentrations dependent for each substrate) to 80 μL of lysate. […] Then a 7×(140 mM) H2O2 hydrogen peroxide solution was added resulting in a final concentration of 20 mM hydrogen peroxide. The reaction was mixed and left at room temperature without shaking for two hours and then quenched with 140 μL of 0.1 m NaOH and 4 M Urea. 38 μL of 0.6% 4-aminoantipyrine was added followed by blanking of the 96-well plate reader at 500 nm. 38 μL of 0.6% potassium persulfate was added and after 20 minutes the A500 was read. […]

| Molecule | activity on test substrates incl. novel substrates (diphenyl ether, allyloxy-benzene) |
| --- | --- |
| B1 | no activity towards any of the substrates tested |
| B2 | activity that is novel |

Reference: patent US8603949B2, “Libraries of optimized cytochrome P450 enzymes and the optimized P450 enzymes” (California Institute of Technology, priority 2003, dated 2013)
